Laboratory results published in the supplement of paper PMC9170038.

How the values were obtained:
MS2 coat protein [1] = test: apparent KD of MS2 coat protein, switch ON state; designed switch direction (-1 OFF switch, 1 ON switch): -1; higher = weaker reporter binding; conditions: FMN input: 0 or 200 uM; Eterna round: R93 (includes R88 designs)
Outline: (§1)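 Designed RNA switches, transcribed on-chip from Illumina sequencing clusters, were titrated with SNAP-549-labelled MS2 coat protein from 0.7 or 1.5 nM to 3 µM in twofold steps. The solution was 100 mM Tris-HCl pH 7.5, 80 mM KCl, 4 mM MgCl2, with constant ligand or without it. Apparent KD is the median over each design's normalised cluster binding-curve fits.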

MS2 coat protein [2] = test: apparent KD of MS2 coat protein, switch OFF state (with FMN for OFF switches, without FMN for ON switches); designed switch direction (-1 OFF switch, 1 ON switch): -1; higher = weaker reporter binding; conditions: FMN input: 0 or 200 uM; Eterna round: R93 (includes R88 designs)
Outline: as §1

MS2 coat protein [3] = test: apparent KD of MS2 coat protein; designed switch direction (-1 OFF switch, 1 ON switch): 1; higher = weaker reporter binding
Outline: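 On Illumina chips, designed RNA switches with common flanks were made by stalled E. coli RNA polymerase. Titrations with SNAP-549-labelled MS2 coat protein, doubling from 0.7 or 1.5 nM to 3 µM, were done with no input, with 200 uM small-molecule ligand, or with an oligonucleotide input. Apparent KD is the median per design over clusters, from curve fits of normalised cluster fluorescence.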

[4] = input ligand: microRNA oligo, concentration not stated
[5] = Eterna round: R95, input ligand: FMN 200 uM
[6] = Eterna round: R95, input ligand: microRNA oligo, concentration not stated
[7] = Eterna round: R95, input ligand: none

Sequence	apparent KD of MS2 coat protein (MS2 coat protein [1]) [nM]	apparent KD of MS2 coat protein (MS2 coat protein [2]) [nM]	further results
AAAAAACAUGAGGAUCACCCAUGUAAGGAUAUACCUAAAAAAAAAAAAAAAAAAAAUGGUAGAAGGUACAAAAA [excalibur12]	28.1	67.5	–
AAAAAACAUGAGGAUCACCCAUGUAAGGAUAUGCGAAAAUAAAAUAAAAUAAAAUAAAGCAGAAGGUACAAAAG [Mat - Exclusion 1 - Eli mod - D3]	28.8	49.5	–
AAAAAACAUGAGGAUCACCCAUGUAAGGAUAUGCUAGGAAAAAGAAAAAUAAAAACUAGCAGAAGGUACAUGAA [JL wbt mod 11]	33.2	113	–
AAAAAACAUGAGGAUCACCCAUGUAAGGAUAUGCUAGGAAAAAGAAAAAUAAAAACUAGCAGAAGGUACAUUAA [JL wbt mod 9]	26.6	38.3	–
AAAAAACAUGAGGAUCACCCAUGUCAGGAUAUACAAAAGAAAAGAAAAAGAAAAGAAAGUAGAAGGGACAAAAA [mod1]	23	24.6	–
AAAAAACAUGAGGAUCACCCAUGUCAGGAUAUCGUCAUAGAUGCAAAAGCAUCUAUGACGAGAAGGGACAUGCC [JL EX1 03]	103	64.6	–
AAAAAACAUGAGGAUCACCCAUGUCAGGAUAUGCUAUGGAAAAUAAAAAUAAAACAUAGCAGAAGGGACACCAA [64%, Meechl, 2]	32.8	58.1	–
AAAAAACAUGAGGAUCACCCAUGUCAGGAUAUUUCUAAAAAAAAAAAAAAAAAAAAUGAAAGAAGGGACAAAAA [excalibur 6]	58	52.5	–
AAAAAACAUGAGGAUCACCCAUGUGAGGAUAUCAGUAGUCAGUCCUCGGAGUGAGUACUGAGAAGGCACAUAAA [Brourd 613 Mod 2- Jieux - Exclusion 1]	65.9	113	–
AAAAAACAUGAGGAUCACCCAUGUGAGGAUAUCGGUAGUGAGGGUAUAGUGUCAAUAGUGAGAAGGCGCAUAAA [Brourd 613 Mod 13 - Jieux - Exclusion 1]	26.3	28	–
AAAAAACAUGAGGAUCACCCAUGUGAGGAUAUGAAAUUACUAAGACAACUGUAAUCAAUCAGAAGGCACAACAA [JR_Exc--1_Sub1207]	23.6	38.6	–
AAAAAACAUGAGGAUCACCCAUGUGAGGAUAUGCAAAACCCAAAUAAAAAGAGAAAAAGCAGAAGGCACAACAA [wbt round 1 mod 3]	15.7	13.8	–
AAAAAACAUGAGGAUCACCCAUGUGAGGAUAUUGGUAUUGAGGGUAUAAUCUCAAUAGCGAGAAGGCGCAUAAA [Brourd 613 Mod 14 - Jieux - Exclusion 1]	31.7	45.3	–
AAAAAAGGAGGAUAUACGAACAUGUCAAAAGACGUGAAGGGACAUGAGGAUCACCCAUGUAGAAGGCUUAAAAA [JL Stem Breaker 4]	42.2	19.2	–
AAAAACGCAGGAUAUACAUGAGGAUCACCCAUGUAAAAAAAAAAAAAGGGAAAAAAAAGUAGAAGGGCGAAAAA [Menkhaure Snaaib]	21.4	43.3	–
AAAAAGAGAGGAUAUACAUGAGGAUCACCCAUGUAAAAAAGAAGAAAGAAAAAAAAAUGUAGAAGGCUCAAAAA ['Exclusion 3']	35.9	34.3	–
AAAAAGAUAGGAUAUACGAACAUGUCGAAAGACGUGAAGGGACAUGAGGAUCACCCAUGUAGAAGGAUUAAAAA [Mat - Exclusion 2 - JL mod - D89]	41.9	16.8	–

Sequence	apparent KD of MS2 coat protein (MS2 coat protein [1]) [nM]	apparent KD of MS2 coat protein (MS2 coat protein [2]) [nM]	further results
AAAAAGGAAGGAUAUACGAACAUGUCGAAAGACGUGAAGGGACAUGAGGAUCACCCAUGUAGAAGGUUCAAAAA [Mat - Exclusion 2 - JL mod - D80]	33.6	19.3	–
AAAAAGGCAGGAUAUACAAAAAAAAAAAAAGAGGAGGAGGGACAUGAGGAUCACCCAUGUAGAAGGGCCAAAAA [William Edward Burghardt 'W. E. B.' Du Bois]	35.4	63.7	–
AAAAAGGCAGGAUAUGCAUACACACGAAAAAAAAAACUGGGACAUGAGGAUCACCCAUGUAGAAGGGCCAAAAA [Dora Explored 9 - Jieux - Exclusion 2]	67.5	41.9	–
AAAAAGGUAGGAUAUACAUGAGGAUCACCCAUGUGAAAAGAAAAUAAGAAAAGAAAGUGUAGAAGGACCAAAAA [JL JSci Mod In the Red]	33	44.1	–
AAAAAGGUAGGAUAUACGAAAAAAAAAAGGUGAAAAAAAAAACAUGAGGAUCACCCAUGUAGAAGGACCAAAAA [Ex 2 sub 1 70% 3]	36.5	62	–
AAAAAGGUAGGAUAUGCAAAAAAUAAUUUAAAAAAAAAAAAACAUGAGGAUCACCCAUGUAGAAGGACCAAAAA [Design 2.0]	25.9	28.8	–
UUGCUCGUGUGAGGAUAUGCCGCCGUUUCGGCUGCAGAAGGUACUCUAAUACAUGAGGAUCACCCAUGUCUCUGUUGUUUCGUG [salish99_SSNG1_r04_935] (Eterna round: R96, puzzle: Same State NG 1)	–	–	apparent KD of MS2 coat protein (MS2 coat protein [3]; input ligand: FMN 200 uM): 86.7 nM; apparent KD of MS2 coat protein (MS2 coat protein [3]; [4]): 52.4 nM; apparent KD of MS2 coat protein (MS2 coat protein [3]; input ligand: none): 80.9 nM
UUGCUCGUGUGAGGAUAUGCCGCCGUUUCGGCUGCAGAAGGUACUUUAAUACAUGAGGAUCACCCAUGUCUCUGUUGUUUCGUG [salish99_SSNG1_r04_933] (Eterna round: R96, puzzle: Same State NG 1)	–	–	apparent KD of MS2 coat protein (MS2 coat protein [3]; [4]): 23.1 nM
UUGGUUCUCGUAGGAUAUGUAGGAUAUUCCUACAUGAGGAUCACCCAUGUUCGCAUGGAAGAAGGACAGAAGGACGAUCACCAU [pwkr ssNG2 2FMN + 1F5.18] (Eterna round: R96, puzzle: Same State NG 2)	–	–	apparent KD of MS2 coat protein (MS2 coat protein [3]; input ligand: FMN 200 uM): 54.8 nM; apparent KD of MS2 coat protein (MS2 coat protein [3]; [4]): 1.88 nM; apparent KD of MS2 coat protein (MS2 coat protein [3]; input ligand: none): 14 nM
UUUAGCGUUACAGGAUAUGGUGAGGAUUACCCACUAGAAGGGUAAACAUGUGCGUCGGACAUGAGGAUCACCCAUGUAGGGCGU (Eterna round: R96, puzzle: Same State NG 1)	–	–	apparent KD of MS2 coat protein (MS2 coat protein [3]; input ligand: FMN 200 uM): 28.4 nM; apparent KD of MS2 coat protein (MS2 coat protein [3]; [4]): 21.6 nM; apparent KD of MS2 coat protein (MS2 coat protein [3]; input ligand: none): 32.4 nM
UUUAGUUGCGGGCAGGAUAUGUGUUAAAAUACAUGAGGAUCACCCAUGUGCGGGUAUAACACCCGACAGAAGGGCCAAUCGCGAC [Laonerce - 2] (Eterna round: R96, puzzle: Same State 2)	–	–	apparent KD of MS2 coat protein (MS2 coat protein [3]; input ligand: FMN 200 uM): 13.5 nM; apparent KD of MS2 coat protein (MS2 coat protein [3]; [4]): 44.2 nM; apparent KD of MS2 coat protein (MS2 coat protein [3]; input ligand: none): 54.9 nM
UUUAGUUGCGGGCAGGAUAUGUGUUAAAAUACAUGAGGAUCACCCAUGUGCGGGUAUAACACCCGACAGAAGGGCCAAUCGCGAC [Laonerce - 2] (puzzle: Same State 2)	–	–	apparent KD of MS2 coat protein (MS2 coat protein [3]; [5]): 21.8 nM; apparent KD of MS2 coat protein (MS2 coat protein [3]; [6]): 56.4 nM; apparent KD of MS2 coat protein (MS2 coat protein [3]; [7]): 67.9 nM
UUUCCAUAGAUAGGAUAUCAGUUUACAUGAGGAUCACCCAUGUUCUCUUUGGUUUUAAUUUUUUCUGAGAAGGAUCUUGAUGAA [JR_SSNG2_Sub001] (Eterna round: R96, puzzle: Same State NG 2)	–	–	apparent KD of MS2 coat protein (MS2 coat protein [3]; input ligand: FMN 200 uM): 20.6 nM; apparent KD of MS2 coat protein (MS2 coat protein [3]; [4]): 17.7 nM; apparent KD of MS2 coat protein (MS2 coat protein [3]; input ligand: none): 25.1 nM
UUUGGGUGGCUGGAGGAUAUUCUUGUGGUUACAUGAGGAUCACCCAUGUGCCGCGCGGUGCGCGAGGAGAAGGCUGGCGGCCGUU (puzzle: Same State 2)	–	–	apparent KD of MS2 coat protein (MS2 coat protein [3]; [5]): 21.7 nM; apparent KD of MS2 coat protein (MS2 coat protein [3]; [6]): 48.3 nM; apparent KD of MS2 coat protein (MS2 coat protein [3]; [7]): 65.7 nM
UUUUUGAUCCGAGGAUAUCCUUUUUUCUUACAUGAGGAUCACCCAUGUAAAGGGAUUGAGUUGUAGGAGAAGGCGGUUUUUGUU [JR_SSNG2_Sub059] (Eterna round: R96, puzzle: Same State NG 2)	–	–	apparent KD of MS2 coat protein (MS2 coat protein [3]; input ligand: FMN 200 uM): 19.8 nM; apparent KD of MS2 coat protein (MS2 coat protein [3]; [4]): 28.3 nM; apparent KD of MS2 coat protein (MS2 coat protein [3]; input ligand: none): 35 nM
UUUUUUUUUUCGAGACAAGCUUUUUGAUCACAUGAGGAUCACCCAUGUCUCGUCUUAUUUUUUUUUUUUUUUUUUUU [BA Sensor hsa-mir-208a - 2 - 1] (puzzle: Sensor for hsa-mir-208a)	–	–	apparent KD of MS2 coat protein (MS2 coat protein [3]; [5]): 343 nM; apparent KD of MS2 coat protein (MS2 coat protein [3]; [6]): 33.6 nM; apparent KD of MS2 coat protein (MS2 coat protein [3]; [7]): 21.3 nM
